Consider ten proteins from patent publication EP0701605B2, “IMPROVED ENZYMES AND DETERGENTS CONTAINING THEM” (BASF SE, priority 1994, dated 1995).

Substrate in the series: C[C@H](NC(=O)CCC(=O)O)C(=O)N[C@@H](C)C(=O)N1CCC[C@H]1C(=O)N[C@@H](Cc1ccccc1)C(=O)Nc1ccc([N+](=O)[O-])cc1
Description: AAPF-pNA assay, kinetic parameters. The series is classed as biochemical, Bacillus lentus DSM 5483. The following applies: 100 mM Tris pH 8.6, 25°C. As for the experimental part:
Two different protease assays were used. With the HPE method protease activity was established at a single concentration of casein as substrate. In the AAPF-pNA assay initial rates of succinyl-L-alanyl-L-alanyl-L-prolyi-L-phenylalanyl-p-nitroanilide (AAPF-pNA; Bachem Bioscience, Philadelphia, PA) supported catalysis were used to determine the kinetic parameters Km, kcat, and kcat/Km.
Protease samples were diluted with 50% (v/v) 1,2-propanediol in 100 mM Tris, adjusted with 2 N HCl to pH 8.6 at 25°C ('Tris-propanediol buffer'), in which they were stable for at least 6 h at room temperature. A stock solution of 160 mM AAPF-pNA was prepared in dimethylsulfoxide dried over molecular sieve beads (Aldrich; 4 A, 4-8 mesh) for at least 24 h prior to use. Fixed point assays were performed at 25°C with 1.6 mM AAPF-pNA in 100 mM Tris, adjusted with 2 N HCl to pH 8.6 at 25°C, in a total volume of 1.020 ml. The substrate was added to the assay buffer 1 minute prior to the assay initiation and the reaction was started by addition of enzyme at a final concentration of 20 ng to 1.3 µg of protein per ml (0.75 to 48.5 nM enzyme) depending on specific activity. Release of p-nitroanilide was monitored at 410 nm, and a molar extinction coefficient of 8,480 M^-1cm^-1 was used to calculate amount and concentration of product formed (DelMar, E.G., Largman, C., Brodrick, J.W., and Geokas, M.C. (1979) Anal Biochem. 99, 316-320).
Kinetic parameters were calculated from a velocity vs. substrate concentration plot constructed from initial rates measured once each at 12 different AAPF-pNA concentrations ranging from 0.16 to 3.2 mM. Data were fitted to a hyperbolic curve and proportionally weighted using the program ENZFITTER (Leatherbarrow, R.J. (1987) ENZFITTER. Biosoft, Cambridge, UK). A nominal molecular weight of 26.8 kDa was used in all calculations that required the interconversion of protein concentration and molarity of protease enzyme (Table 4).

Setting [1] is: other: F54, AAPF-pNA 0.16 to 3.2 mM.
Setting [2] is: other: F49, AAPF-pNA 0.16 to 3.2 mM.
Setting [3] is: other: F45, AAPF-pNA 0.16 to 3.2 mM.
Where [4] appears, read: other: F11, AAPF-pNA 0.16 to 3.2 mM.
Setting [5] is: other: F44, AAPF-pNA 0.16 to 3.2 mM.
Where [6] appears, read: other: F46, AAPF-pNA 0.16 to 3.2 mM.
Setting [7] is: other: F43, AAPF-pNA 0.16 to 3.2 mM.
Where [8] appears, read: other: M131, AAPF-pNA 0.16 to 3.2 mM.
[9] abbreviates: other: F55, AAPF-pNA 0.16 to 3.2 mM.
[10] abbreviates: other: F47, AAPF-pNA 0.16 to 3.2 mM.

B1: Bacillus lentus DSM 5483 alkaline protease (BLAP) variant F54, S3T + V41 + R99G + A188P + V193M + V199I + L211D, SEQ ID NO:17 (Lederbergia lenta; … (protein)
chain: AQTIPWGISRVQAPAAHNRGLTGSGVKVAVLDTGISTHPDLNIRGGASFVPGEPSTQDGNGHGTHVAGTIAALNNSIGVLGVAPSAELYAVKVLGADGGGAISSIAQGLEWAGNNGMHVANLSLGSPSPSATLEQAVNSATSRGVLVVAASGNSGASSISYPARYANAMAVGATDQNNNRASFSQYGPGLDIMAPGVNIQSTYPGSTYASDNGTSMATPHVAGAAALVKQKNPSWSNVQIRNHLKNTATSLGSTNLYGSGLVNAEAATR
notes: made in house; host or cells: Bacillus subtilis DB104
Usually Km stands for the concentration of substrate that gives half-maximal velocity. As a reminder, the kcat is the number of substrate molecules converted per active site and unit of time at saturation. The kcat/Km is the second-order rate constant that governs catalysis at low substrate concentration. B1: under setting [1], the Km turned out to be 5500 µM, the catalytic constant (kcat) was 7 s⁻¹ and the kcat/Km was determined as 1300 M⁻¹ s⁻¹.

B2: Bacillus lentus DSM 5483 alkaline protease (BLAP) variant F49, S3T + V4I + A188P + V193M + V1991 + L211D, SEQ ID NO:16 (Lederbergia lenta; … (protein)
chain: AQTIPWGISRVQAPAAHNRGLTGSGVKVAVLDTGISTHPDLNIRGGASFVPGEPSTQDGNGHGTHVAGTIAALNNSIGVLGVAPSAELYAVKVLGADGRGAISSIAQGLEWAGNNGMHVANLSLGSPSPSATLEQAVNSATSRGVLVVAASGNSGASSISYPARYANAMAVGATDQNNNRASFSQYGPGLDIMAPGVNIQSTYPGSTYASDNGTSMATPHVAGAAALVKQKNPSWSNVQIRNHLKNTATSLGSTNLYGSGLVNAEAATR
notes: as for B1
As to B2, under setting [2], the Km amounted to 3500 µM, the kcat is 38 s⁻¹ and the kcat/Km is 11000 M⁻¹ s⁻¹.

B3: Bacillus lentus DSM 5483 alkaline protease (BLAP) variant F45, S3T + V41 + R99S + A188P + V193M + V1991, SEQ ID NO:13 (Lederbergia lenta; … (protein)
chain: AQTIPWGISRVQAPAAHNRGLTGSGVKVAVLDTGISTHPDLNIRGGASFVPGEPSTQDGNGHGTHVAGTIAALNNSIGVLGVAPSAELYAVKVLGADGSGAISSIAQGLEWAGNNGMHVANLSLGSPSPSATLEQAVNSATSRGVLVVAASGNSGASSISYPARYANAMAVGATDQNNNRASFSQYGPGLDIMAPGVNIQSTYPGSTYASLNGTSMATPHVAGAAALVKQKNPSWSNVQIRNHLKNTATSLGSTNLYGSGLVNAEAATR
notes: as for B1
Consider B3, for which, under setting [3], the Michaelis-Menten constant (Km) turned out to be 3050 µM, the kcat turned out to be 208 s⁻¹ and the kcat/Km was determined as 68000 M⁻¹ s⁻¹.

B4: Bacillus lentus DSM 5483 alkaline protease (BLAP) variant F11, S3T + R99S + A188P + V193M + V1991, SEQ ID NO:10 (Lederbergia lenta; A188P/R99S/S3T/V193M/V199I) (protein)
chain: AQTVPWGISRVQAPAAHNRGLTGSGVKVAVLDTGISTHPDLNIRGGASFVPGEPSTQDGNGHGTHVAGTIAALNNSIGVLGVAPSAELYAVKVLGADGSGAISSIAQGLEWAGNNGMHVANLSLGSPSPSATLEQAVNSATSRGVLVVAASGNSGASSISYPARYANAMAVGATDQNNNRASFSQYGPGLDIMAPGVNIQSTYPGSTYASLNGTSMATPHVAGAAALVKQKNPSWSNVQIRNHLKNTATSLGSTNLYGSGLVNAEAATR
notes: as for B1
As to B4, under setting [4], the Km was 1880 µM, the kcat was found to be 174 s⁻¹ and the kcat/Km was 92000 M⁻¹ s⁻¹.

B5: Bacillus lentus DSM 5483 alkaline protease (BLAP) variant F44, S3T + V41 + R99A + A188P + V193M + V1991, SEQ ID NO:12 (Lederbergia lenta; … (protein)
chain: AQTIPWGISRVQAPAAHNRGLTGSGVKVAVLDTGISTHPDLNIRGGASFVPGEPSTQDGNGHGTHVAGTIAALNNSIGVLGVAPSAELYAVKVLGADGAGAISSIAQGLEWAGNNGMHVANLSLGSPSPSATLEQAVNSATSRGVLVVAASGNSGASSISYPARYANAMAVGATDQNNNRASFSQYGPGLDIMAPGVNIQSTYPGSTYASLNGTSMATPHVAGAAALVKQKNPSWSNVQIRNHLKNTATSLGSTNLYGSGLVNAEAATR
notes: as for B1
In the case of B5, under setting [5], the Km came out at 2490 µM, the kcat was found to be 257 s⁻¹ and the kcat/Km came out at 103000 M⁻¹ s⁻¹.

B6: Bacillus lentus DSM 5483 alkaline protease (BLAP) variant F46, S3T + V41 + S154E + A188P + V193M + V1991, SEQ ID NO:14 (Lederbergia lenta; … (protein)
chain: AQTIPWGISRVQAPAAHNRGLTGSGVKVAVLDTGISTHPDLNIRGGASFVPGEPSTQDGNGHGTHVAGTIAALNNSIGVLGVAPSAELYAVKVLGADGRGAISSIAQGLEWAGNNGMHVANLSLGSPSPSATLEQAVNSATSRGVLVVAASGNEGASSISYPARYANAMAVGATDQNNNRASFSQYGPGLDIMAPGVNIQSTYPGSTYASLNGTSMATPHVAGAAALVKQKNPSWSNVQIRNHLKNTATSLGSTNLYGSGLVNAEAATR
notes: as for B1
B6: under setting [6], the Km was determined as 2000 µM, the kcat amounted to 358 s⁻¹ and the kcat/Km is 179000 M⁻¹ s⁻¹.

B7: Bacillus lentus DSM 5483 alkaline protease (BLAP) variant F43, S3T + V41 + R99G + A188P + V193M + V1991, SEQ ID NO:11 (Lederbergia lenta; … (protein)
chain: AQTIPWGISRVQAPAAHNRGLTGSGVKVAVLDTGISTHPDLNIRGGASFVPGEPSTQDGNGHGTHVAGTIAALNNSIGVLGVAPSAELYAVKVLGADGGGAISSIAQGLEWAGNNGMHVANLSLGSPSPSATLEQAVNSATSRGVLVVAASGNSGASSISYPARYANAMAVGATDQNNNRASFSQYGPGLDIMAPGVNIQSTYPGSTYASLNGTSMATPHVAGAAALVKQKNPSWSNVQIRNHLKNTATSLGSTNLYGSGLVNAEAATR
notes: as for B1
Regarding B7, under setting [7], the Km is 1730 µM, the kcat worked out at 171 s⁻¹ and the kcat/Km was 99000 M⁻¹ s⁻¹.

B8: Bacillus lentus DSM 5483 alkaline protease (BLAP) variant M131, S3T + V41 + A188P + V193M + V1991, SEQ ID NO: 24 (Lederbergia lenta; A188P/S3T/V193M/V199I/V4I) (protein)
chain: AQTIPWGISRVQAPAAHNRGLTGSGVKVAVLDTGISTHPDLNIRGGASFVPGEPSTQDGNGHGTHVAGTIAALNNSIGVLGVAPSAELYAVKVLGADGRGAISSIAQGLEWAGNNGMHVANLSLGSPSPSATLEQAVNSATSRGVLVVAASGNSGASSISYPARYANAMAVGATDQNNNRASFSQYGPGLDIMAPGVNIQSTYPGSTYASLNGTSMATPHVAGAAALVKQKNPSWSNVQIRNHLKNTATSLGSTNLYGSGLVNAEAATR
notes: site-specific mutagenesis of DNA encoding the mature form of wild type BLAP; made in house; host or cells: Bacillus subtilis DB104
Take B8: under setting [8], the Km was 980 µM, the kcat stood at 153 s⁻¹ and the kcat/Km amounted to 156000 M⁻¹ s⁻¹.

B9: Bacillus lentus DSM 5483 alkaline protease (BLAP) variant F55, S3T + V41 + S154E + A188P + V193M + V1991 + L211D, SEQ ID NO:18 (Lederbergia lenta; … (protein)
chain: AQTIPWGISRVQAPAAHNRGLTGSGVKVAVLDTGISTHPDLNIRGGASFVPGEPSTQDGNGHGTHVAGTIAALNNSIGVLGVAPSAELYAVKVLGADGRGAISSIAQGLEWAGNNGMHVANLSLGSPSPSATLEQAVNSATSRGVLVVAASGNEGASSISYPARYANAMAVGATDQNNNRASFSQYGPGLDIMAPGVNIQSTYPGSTYASDNGTSMATPHVAGAAALVKQKNPSWSNVQIRNHLKNTATSLGSTNLYGSGLVNAEAATR
notes: as for B1
For the protein B9, under setting [9], the Km was found to be 4300 µM, the kcat amounted to 11 s⁻¹ and the kcat/Km was determined as 2600 M⁻¹ s⁻¹.

B10: Bacillus lentus DSM 5483 alkaline protease (BLAP) variant F47, S3T + V41 + S154D + A188P + V193M + V1991, SEQ ID NO:15 (Lederbergia lenta; … (protein)
chain: AQTIPWGISRVQAPAAHNRGLTGSGVKVAVLDTGISTHPDLNIRGGASFVPGEPSTQDGNGHGTHVAGTIAALNNSIGVLGVAPSAELYAVKVLGADGRGAISSIAQGLEWAGNNGMHVANLSLGSPSPSATLEQAVNSATSRGVLVVAASGNDGASSISYPARYANAMAVGATDQNNNRASFSQYGPGLDIMAPGVNIQSTYPGSTYASLNGTSMATPHVAGAAALVKQKNPSWSNVQIRNHLKNTATSLGSTNLYGSGLVNAEAATR
notes: as for B1
Turning to B10, under setting [10], the Km amounted to 2000 µM, the kcat came out at 249 s⁻¹ and the kcat/Km is 124000 M⁻¹ s⁻¹.
